In paper PMC4789280, “Characterisation of the broad substrate specificity 2-keto acid decarboxylase Aro10p of Saccharomyces kudriavzevii and its implication in aroma development” (Microbial Cell Factories, 2016):

B1: SkAro10p (Saccharomyces kudriavzevii IFO 1802) (protein)
chain: MTPVTINTFVNQKEPHLVSNELATISFGEYIFRRLLSTGTKSVFGVPGDFNLSLLEYLYAPSVESAGLKWIGTCNELNAAYAADGYSRYSNNIGCLVTTFGVGELSALNGVAGSFAENVKVLHIVGVAKSIDSRSDNFRDRNMHHLVPQLHGSNFKGPNHKVYHDMVKDRVACSVAYLEDIETACDQVDNVIRDIYKYSKPGYIFVPADFADMSVTCENLINVPHISQQDCITYPSQIQLFDILDRITSWMYSSKTPAILGDVLTDRYGVSEILNKLIYATGIWNFSTVMGKSVIDEANPKYMGQYNGKEGLRQVYEHFESCDLVLHFGVDINEINNGHYTFTYKPNAKIIQFHPNYIRFVDTKYGHEQMFEGINFAPVLMELYKGIDVSRLSLQYDSGVTSYTNETMQLEDPTNDQSNNITQVHLQKVMPKFLSPGDVVVCETGSFQFSVRDFAFPTQLKYISQGFFLSIGMALPAALGVGIAMQDFPNAHISDENIGEGYKPRLILFEGDGAAQMTIQELSTILKCHITIDIFIWNNNGYTIERAIMGPTRAYNDVMSWKWTKLLEAFGDFDRKHTNSTVIEYPSKLAMKLEELKSSNTRDGIELVEVKLGVLDFPEQLKCMVDAAALKRNKK
notes: full-length ARO10 allele on plasmid pG-SkARO10-kX (pGREG526); expressed in S. cerevisiae CEN.PK 711-7C pdc1 pdc5 pdc6 aro10 thi3 null; cell extract
B2: ScAro10p (Saccharomyces cerevisiae S288C) (protein)
chain: MAPVTIEKFVNQEERHLVSNRSATIPFGEYIFKRLLSIDTKSVFGVPGDFNLSLLEYLYSPSVESAGLRWVGTCNELNAAYAADGYSRYSNKIGCLITTYGVGELSALNGIAGSFAENVKVLHIVGVAKSIDSRSSNFSDRNLHHLVPQLHDSNFKGPNHKVYHDMVKDRVACSVAYLEDIETACDQVDNVIRDIYKYSKPGYIFVPADFADMSVTCDNLVNVPRISQQDCIVYPSENQLSDIINKITSWIYSSKTPAILGDVLTDRYGVSNFLNKLICKTGIWNFSTVMGKSVIDESNPTYMGQYNGKEGLKQVYEHFELCDLVLHFGVDINEINNGHYTFTYKPNAKIIQFHPNYIRLVDTRQGNEQMFKGINFAPILKELYKRIDVSKLSLQYDSNVTQYTNETMRLEDPTNGQSSIITQVHLQKTMPKFLNPGDVVVCETGSFQFSVRDFAFPSQLKYISQGFFLSIGMALPAALGVGIAMQDHSNAHINGGNVKEDYKPRLILFEGDGAAQMTIQELSTILKCNIPLEVIIWNNNGYTIERAIMGPTRSYNDVMSWKWTKLFEAFGDFDGKYTNSTLIQCPSKLALKLEELKNSNKRSGIELLEVKLGELDFPEQLKCMVEAAALKRNKK

Legend:
[1] = substrate: O=C(O)C(=O)Cc1ccccc1; assay: decarboxylase activity, cell extract of decarboxylase-null yeast, Michaelis-Menten; type: biochemical, Saccharomyces kudriavzevii; conditions: cell extract from aerobic ethanol-limited chemostat culture, phenylalanine as nitrogen source
[2] = substrate: O=C(O)C(=O)Cc1ccccc1; assay: cells, lysate or membranes; conditions: cell extract from aerobic ethanol-limited chemostat culture, phenylalanine as nitrogen source

Row | Protein | Km [1] [µM] | Km [2] [µM]
1 | B1 | 70 ± 5 | 
2 | B2 |  | 150 ± 10
